According to paper PMC12412624, “Engineered Cas12j‐8 is a Versatile Platform for Multiplexed Genome Modulation in Mammalian Cells”:
Positions count from the first letter of the chain named.

What was measured:
Conditions in all cases: HEK293T cells; panel 1c (compare within a panel only); scale: mean GFP / mean GFP of wild type, printed, no background subtraction
[1] = test system: T1, dCas12j-8 D403R D403R;D369A;E567A;D658A (bacteriophage (metagenome))
T1 sequence: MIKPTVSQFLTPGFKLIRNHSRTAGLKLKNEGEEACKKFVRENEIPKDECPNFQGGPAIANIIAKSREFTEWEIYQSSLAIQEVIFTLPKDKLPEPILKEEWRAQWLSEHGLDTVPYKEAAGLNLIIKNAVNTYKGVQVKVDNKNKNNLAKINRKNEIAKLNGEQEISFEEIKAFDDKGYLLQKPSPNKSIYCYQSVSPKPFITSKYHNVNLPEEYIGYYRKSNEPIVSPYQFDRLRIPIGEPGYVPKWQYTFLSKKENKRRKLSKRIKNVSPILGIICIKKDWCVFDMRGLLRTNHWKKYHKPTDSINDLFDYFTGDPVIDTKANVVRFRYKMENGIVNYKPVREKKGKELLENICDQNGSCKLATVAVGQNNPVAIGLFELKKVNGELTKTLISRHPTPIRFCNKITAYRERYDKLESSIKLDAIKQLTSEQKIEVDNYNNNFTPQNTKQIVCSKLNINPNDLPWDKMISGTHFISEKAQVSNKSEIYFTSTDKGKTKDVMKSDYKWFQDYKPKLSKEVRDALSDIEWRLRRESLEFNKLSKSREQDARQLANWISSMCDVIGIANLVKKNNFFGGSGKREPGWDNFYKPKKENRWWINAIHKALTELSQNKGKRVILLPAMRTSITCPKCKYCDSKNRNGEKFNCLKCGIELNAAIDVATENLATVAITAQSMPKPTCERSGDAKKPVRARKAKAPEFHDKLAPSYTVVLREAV

[2] = test system: T2, dCas12j-8 D523R D523R;D369A;E567A;D658A (bacteriophage (metagenome))
T2 sequence: T1 sequence with R403D, D523R

[3] = test system: T3, dCas12j-8 E31R E31R;D369A;E567A;D658A (bacteriophage (metagenome))
T3 sequence: T1 sequence with E31R, R403D

[4] = test system: T4, dCas12j-8 E609R E609R;D369A;E567A;D658A (bacteriophage (metagenome))
T4 sequence: T1 sequence with R403D, E609R

For “CUUUCAAGACUAAUAGAUUGCUCCUUACGAGGAGACACUCCCUAUCAGUGAUAGAG / TTNACTCCCTATCAGTGATAGAG / CTCTATCACTGATAGGGAGTNAA [TetO]”, the binding signal [1] was 0.365, the binding signal [2] was 1.32 and the binding signal [3] was 0.82. It also gave a binding signal [4] of 0.336.
